According to patent US20100183617A1 (UNIVERSITY OF VIRGINIA PATENT FOUNDATION, published 2010):

T1: purified recombinant mouse SAS1R (mature, 414 residues), His-tagged, expressed in E. coli (mouse, UniProt Q6HA09 24-435)
T1 construct: Purified from the insoluble fraction in 8 M urea on a Ni column; The preparation also holds a ˜25 kD C-terminal fragment; ZEP is the earlier name of SAS1R; also called rSAS1R; rec SAS1R; not shown: twenty vector-encoded (pET-28b(+)) amino acids including a six histidine tag at the N-terminus; ten vector-encoded amino acids including a six histidine tag at the C-terminus
T1 sequence: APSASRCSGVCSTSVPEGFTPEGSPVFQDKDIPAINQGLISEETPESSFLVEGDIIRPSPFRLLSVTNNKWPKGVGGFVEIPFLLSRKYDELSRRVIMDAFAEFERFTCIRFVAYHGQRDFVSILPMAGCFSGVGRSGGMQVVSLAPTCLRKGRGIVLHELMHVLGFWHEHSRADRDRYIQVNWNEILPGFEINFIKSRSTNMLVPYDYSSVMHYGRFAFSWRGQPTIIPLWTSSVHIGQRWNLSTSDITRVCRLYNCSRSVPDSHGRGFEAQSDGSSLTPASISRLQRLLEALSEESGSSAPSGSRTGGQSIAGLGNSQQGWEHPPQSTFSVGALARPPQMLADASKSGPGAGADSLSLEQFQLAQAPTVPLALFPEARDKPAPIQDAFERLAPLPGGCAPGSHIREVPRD

T2: in vitro translated 35S-methionine labeled full length SAS1R with N-terminal c-Myc tag (mouse, UniProt Q6HA09 24-435, 35S-methionine labeled)
T2 construct: ˜50 kD; also called SAS1R full length (F); F-SAS1R full length
T2 sequence: T1 sequence

B1: human Lamin C (negative control construct of the two-hybrid system) (other)
chain: SEEVVSREVSGIKAAYEAELGDARKTLDSVAKERARLQLELSKVREEFKELKARNTKKEGDLIAAQARLKDLEALLNSKEAALSTALSEKRTLEGELHDLRGQVAKLEAALGEAKKQLQDEMLRRVDAENRLQTMKEELDFQKNIYSEELRETKRRHETRLVEID
B2: in vitro translated 35S-methionine labeled SAS1R N-terminus (121 residues) with N-terminal c-Myc tag (receptor, not shown: small tags and cut ends)
chain: MGAPSASRCSGVCSTSVPEGFTPEGSPVFQDKDIPAINQGLISEETPESSFLVEGDIIRPSPFRLLSVTNNKWPKGVGGFVEIPFLLSRKYDELSRRVIMDAFAEFERFTCIRFVAYHGQR
modifications: 35S-methionine labeled
notes: ˜21 kD; also called N-terminus (N); N-SAS1R N-terminus
B3: native mouse SLLP1 of sperm (acrosomal, ˜15 kDa form) (ligand)
chain: KVFSRCELAKEMHDFGLDGYRGYNLADWVCLAYYTSGFNTNAVDHEADGSTNNGIFQISSRRWCRTLASNGPNLCRIYCTDLLNNDLKDSIVCAMKIVQEPLGLGYWEAWRHHCQGRDLSDWVDGCDF
notes: Only a ˜15 kDa form is found in sperm extracts; The predicted processed form is residues 94-221 (cleavage between A93 and K94 is only predicted); On sperm or in sperm extracts; also called native SLLP1; native mSLLP1
B4: purified soluble recombinant mouse SLLP1 (mature form, residues 94-221), His-tagged, expressed in E. coli (ligand)
chain: B3 chain
notes: also called rSLLP1; rec SLLP1; not shown: two vector-encoded residues at the N-terminus and eight at the C-terminus including the six-histidine tag (pET28b+)
B5: in vitro translated 35S-methionine labeled mature mouse SLLP1 (128 residues) with N-terminal HA tag (ligand, not shown: small tags and cut ends)
chain: B3 chain
modifications: 35S-methionine labeled
notes: ˜16 kD; also called SLLP1 (S); S-SLLP1

How the values were obtained:
[1] = target: T3, SV40 large T-antigen (control construct of the two-hybrid system; HA-tagged when translated in vitro) (SV40, UniProt P03070 86-708); assay: yeast two-hybrid, high stringency plate
T3 construct: Control used both in the Y2H assay and in the co-IP (HA tag); also called T-antigen (T)

[2] = target: B5; assay: co-IP of in vitro translated 35S-labeled proteins, anti-Myc beads
[3] = target: T1, purified recombinant mouse SAS1R …; assay: co-localization by immunofluorescence, capacitated sperm incubated with rSAS1R
[4] = target: T1, purified recombinant mouse SAS1R …; assay: far-western overlay
[5] = target: T2, in vitro translated 35S-methionine …; assay: co-IP of in vitro translated 35S-labeled proteins, anti-Myc beads

T3 sequence (P03070 86-708 limits assumed): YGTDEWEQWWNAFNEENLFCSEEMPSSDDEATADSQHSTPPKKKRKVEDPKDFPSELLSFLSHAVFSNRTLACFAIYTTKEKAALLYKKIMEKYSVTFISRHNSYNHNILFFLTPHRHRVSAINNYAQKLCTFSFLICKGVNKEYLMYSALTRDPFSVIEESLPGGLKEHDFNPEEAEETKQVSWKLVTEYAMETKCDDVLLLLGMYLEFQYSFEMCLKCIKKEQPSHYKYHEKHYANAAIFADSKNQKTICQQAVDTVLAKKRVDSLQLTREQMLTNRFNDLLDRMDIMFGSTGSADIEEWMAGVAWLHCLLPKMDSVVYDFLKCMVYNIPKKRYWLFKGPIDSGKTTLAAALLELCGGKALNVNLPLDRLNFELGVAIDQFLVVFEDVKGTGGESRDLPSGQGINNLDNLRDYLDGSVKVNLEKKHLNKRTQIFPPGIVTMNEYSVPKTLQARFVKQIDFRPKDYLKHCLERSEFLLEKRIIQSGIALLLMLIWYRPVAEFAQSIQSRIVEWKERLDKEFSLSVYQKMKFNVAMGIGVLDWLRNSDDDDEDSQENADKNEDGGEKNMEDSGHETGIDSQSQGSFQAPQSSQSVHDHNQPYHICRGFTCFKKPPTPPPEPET

**Q.** Does B1 bind [1]?
**A.** no binding

**Q.** Does B2 bind [2]?
**A.** binds

**Q.** Does B3 bind [3]?
**A.** binds

**Q.** Does B4 bind [4]?
**A.** binds

**Q.** Does B5 bind [5]?
**A.** binds
